Measured values reported in doi:10.1101/2022.09.06.506802 (bioRxiv, 2022).
Values joined by “and” are separate entries in the source; they are usually repeats but may differ in a detail not shown here. Equal entries are not always repeated.

Legend:
[1] = molecular target: Human Talin 1 R1R2-17b (residues 482-786 + additional 17 residues) (human) (UniProt Q9Y490); experiment: SEC
[2] = molecular target: Human Talin 1 R1R2-WT (residues 482-786) (human, UniProt Q9Y490 482-786); experiment: NMR titration

| Molecule | stoichiometry N (vinculin per talin) [1] | binding result [2] |
| --- | --- | --- |
| Vinculin domain 1 (VD1) (from UniProt P18206 1-258) (domain or fragment) | 2 and 3 |  |
| SEDIDQMFSTLLGEMDLLTQSLGVDTC [RIAM peptide (residues 4-30)] |  | binds |
